Laboratory results published in the supplement of paper PMC10126150.
± gives the standard deviation of the averaged measurements.

Test system: ATP
Assay: switch fluorescence ratio, 500 uM ATP over buffer (Cy3 cluster intensity, sum of 5 cycles each) (fold (ratio)); higher = stronger signal-on switching upon ATP binding; sequences stand for … in TCGTCGGCAGCGTCAGATGTGTATAAGAGACAGTTTTTTTTTTTTTTTTTTTTTTTTT…TC
Details: aptamer strand: ATP DNA aptamer (quencher-CACCTGGGGGAGTATTGCGGAGGAAGG + anchor), 100 nM annealed; ATP concentration: 500 uM
Outline: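 Values give the fluorescence ratio for each switch-domain sequence, averaged from per-cluster ratios of summed target-cycle to summed buffer-cycle Cy3 intensity. The Cy3-labelled switching-strand clusters sat on a modified Illumina MiSeq flow-cell, were annealed to 100 nM quencher-labelled ATP aptamer, and were imaged in selection buffer, then after 15 min with 500 uM ATP at 22 °C. Five cycles ran with NaOH stripping and re-annealing between them, and clusters outside 100-1000 RFU were excluded.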
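Also: ATP exposure 15 min at 22 °C before imaging.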

Sequence	switch fluorescence ratio
ATCTCGCGCA	1.36 ± 0.11
ATCTCGGGTG	1.01 ± 0.043
ATCTCTGTAA	1.264 ± 0.0068
ATCTCTTTTA	0.954 ± 0.0099
ATCTGAGTAG	0.999 ± 0.023
ATCTGAGTTG	0.989 ± 0.031
ATCTGATATT	1.01 ± 0.033
ATCTGCAACA	1.62 ± 0.042
ATCTGCTAGG	1.01 ± 0.031
ATCTGGGGCC	1.01 ± 0.012
ATCTGGTGCA	1.055 ± 0.0059
ATCTGTCAAG	0.9954 ± 0.0058
ATCTTCCAGG	1.614 ± 0.0089
ATCTTCGGGC	0.9869 ± 0.0065
ATCTTTATAT	0.994 ± 0.019
ATCTTTGTTG	0.987 ± 0.018
ATGAAATTGT	1.02 ± 0.033
ATGAACAGGG	1.01 ± 0.05
ATGAAGCGGT	1.04 ± 0.083
ATGAATGGAG	1.01 ± 0.026
ATGAATGTTA	1.006 ± 0.0075
ATGAATTCTG	1.059 ± 0.0049
ATGACAGCGG	1.01 ± 0.11

Sequence	switch fluorescence ratio
ATGACGCTGG	1.03 ± 0.13
ATGACGGGGT	1.05 ± 0.085
ATGACGGTAG	0.97 ± 0.062
ATGAGAACTC	1.024 ± 0.0051
ATGAGAAGTG	0.969 ± 0.014
ATGAGCAAGA	1.49 ± 0.015
ATGAGCCGAG	0.9983 ± 0.009
ATGAGCTGGG	0.966 ± 0.015
ATGAGGAGGA	1.04 ± 0.013
ATGAGGGTCT	0.999 ± 0.044
ATGAGGGTGC	0.994 ± 0.054
ATGAGGTTCA	0.9759 ± 0.0049
ATGAGGTTTC	0.989 ± 0.016
ATGAGTAAAG	0.999 ± 0.025
ATGAGTATTG	0.9888 ± 0.0078
ATGAGTCTAA	0.992 ± 0.011
ATGAGTGGGG	1.01 ± 0.029
ATGAGTTTTT	1.01 ± 0.054
ATGATAAAAT	1.11 ± 0.13
ATGATAAGGG	0.979 ± 0.013
ATGATACATA	1.02 ± 0.019
ATGATAGAAC	1.03 ± 0.015
ATGATATTTT	0.986 ± 0.027

Sequence	switch fluorescence ratio
ATGATCAATT	1.02 ± 0.049
ATGATGAGTT	0.986 ± 0.01
ATGATGCGGG	1.01 ± 0.044
ATGATGTCGG	1.03 ± 0.033
ATGATTAAGG	1.015 ± 0.0029
ATGATTAGTT	1.01 ± 0.046
ATGATTCCTT	1 ± 0.03
ATGATTTAGG	0.9998 ± 0.0095
ATGCACACCG	1.087 ± 0.0016
ATGCACGGAA	1.05 ± 0.036
ATGCACTGGT	1.01 ± 0.026
ATGCAGATTA	1.023 ± 0.0051
ATGCAGGCAC	1.03 ± 0.024
ATGCAGGGCT	0.962 ± 0.041
ATGCATAGTT	0.963 ± 0.017
ATGCATGCGT	1 ± 0.048
ATGCATTTGT	1.01 ± 0.031
ATGCCTCGGG	1.02 ± 0.032
ATGCGAAGG	0.98 ± 0.038
ATGCGAAGTG	1 ± 0.039
ATGCGACGGC	1.05 ± 0.028
ATGCGATGTA	1.04 ± 0.046
ATGCGCTTTT	1.03 ± 0.089

Sequence	switch fluorescence ratio
ATGCGGTGTG	0.978 ± 0.04
ATGCGTATTT	0.975 ± 0.039
ATGCGTCGGA	1.032 ± 0.0066
ATGCGTGAGG	1.011 ± 0.0037
ATGCTAAGTG	0.96412 ± 8.8e-05
ATGCTAATTA	1.02 ± 0.024
ATGCTATCGT	1.02 ± 0.014
ATGCTGACCT	1.01 ± 0.034
ATGCTTAGTC	0.964 ± 0.018
ATGCTTGCTG	0.9819 ± 0.0052
ATGGAAAAGG	0.9916 ± 0.0094
ATGGACAGGC	0.912 ± 0.014
ATGGACCGTT	1.02 ± 0.078
ATGGAGGCGC	0.981 ± 0.028
ATGGAGGTTA	0.9695 ± 0.0085
ATGGATATGG	1 ± 0.026
ATGGATCACC	1.019 ± 0.0027
ATGGATCGAT	0.967 ± 0.037
ATGGATGACT	1.04 ± 0.018
ATGGATTTTT	1.012 ± 0.0015
ATGGCAGACA	0.9836 ± 0.0036
ATGGCAGGGC	1.01 ± 0.016
ATGGCAGGTT	1.01 ± 0.021

Sequence	switch fluorescence ratio
ATGGCCTTAA	0.982 ± 0.028
ATGGCGGCGT	0.959 ± 0.035
ATGGCTATTC	0.979 ± 0.046
ATGGCTGGGC	1.005 ± 0.0042
ATGGCTTTTG	1.02 ± 0.037
ATGGGAACGG	0.994 ± 0.017
ATGGGAAGAC	1.06 ± 0.017
ATGGGACATT	1.03 ± 0.079
ATGGGACTTT	1.02 ± 0.037
ATGGGAGCTG	0.9831 ± 0.0037
ATGGGATTGG	0.962 ± 0.02
ATGGGATTTA	1.04 ± 0.024
ATGGGCACA	0.99899 ± 0.00092
ATGGGCACGT	0.983 ± 0.019
ATGGGCAGTG	1.02 ± 0.015
ATGGGCCCT	0.997 ± 0.031
ATGGGCCGCT	0.9835 ± 0.0087
ATGGGCGGTA	1.04 ± 0.052
ATGGGCTGCT	1.05 ± 0.062
ATGGGCTTCG	1.01 ± 0.034
ATGGGGAAAG	0.9876 ± 0.0034
ATGGGGAAGT	1.02 ± 0.02
ATGGGGAATG	0.984 ± 0.016

Sequence	switch fluorescence ratio
ATGGGGCACT	0.9789 ± 0.0042
ATGGGGCAGG	1.01 ± 0.033
ATGGGGCGGC	0.983 ± 0.026
ATGGGGGACA	0.981 ± 0.012
ATGGGGGCGT	0.994 ± 0.043
ATGGGGGTCC	1.01 ± 0.068
ATGGGGTACA	1.033 ± 0.0032
ATGGGGTAGC	0.995 ± 0.012
ATGGGGTGCG	0.9998 ± 0.0014
ATGGGGTTTG	0.974 ± 0.018
ATGGGTAATC	1.03 ± 0.026
ATGGGTCCGG	1.02 ± 0.037
ATGGGTGATA	0.9935 ± 0.0092
ATGGGTGGGG	1.01 ± 0.037
ATGGGTTGTT	1.01 ± 0.034
ATGGGTTTGG	1.01 ± 0.036
ATGGGTTTTC	0.981 ± 0.03
ATGGTAATGG	1.02 ± 0.016
ATGGTATCT	1.08 ± 0.1
ATGGTGAATG	0.978 ± 0.017
ATGGTGACGG	0.9765 ± 0.0034
ATGGTGGCAG	0.997 ± 0.054
ATGGTGGTGT	1.03 ± 0.013

Sequence	switch fluorescence ratio
ATGGTGTCGA	0.947 ± 0.029
ATGGTGTGG	1.02 ± 0.074
ATGGTTATGT	1.03 ± 0.026
ATGGTTCAAC	1.003 ± 0.01
ATGGTTCGGG	0.996 ± 0.014
ATGGTTTCGT	0.996 ± 0.037
ATGGTTTTAT	1.01 ± 0.045
ATGTAAATGA	0.9855 ± 0.0083
ATGTAACGGG	1.03 ± 0.021
ATGTAATATG	0.992 ± 0.024
ATGTACGCTT	1.052 ± 0.0038
ATGTACTGGG	1.08 ± 0.043
ATGTACTTTA	1.06 ± 0.028
ATGTAGAAGG	1 ± 0.029
ATGTAGAGGT	0.9803 ± 0.0074
ATGTAGCATG	1.036 ± 0.0041
ATGTAGCGGT	1.12 ± 0.013
ATGTATAAAT	0.9743 ± 0.009
ATGTATTGAG	1.008 ± 0.0025
